Laboratory results published in patent publication US20080199496A1.

T1: scrambled RNase A (reduced and denatured ribonuclease A), P61823
T1 chain: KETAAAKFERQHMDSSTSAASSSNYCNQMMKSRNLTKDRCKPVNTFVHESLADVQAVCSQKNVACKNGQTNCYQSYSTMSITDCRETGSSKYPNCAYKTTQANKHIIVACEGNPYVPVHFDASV


Assays:
[1] = molecular target: recombinant protein LmPDI-(His)6 produced in E. coli (Leishmania major); experiment: cell-based or functional assay
[2] = molecular target: T1, scrambled RNase A (reduced and …)

Row | Molecule | inhibition of LmPDI activity (scrambled RNase A reactivation test) [1] [mM] | inhibition of rLmPDI activity (scrambled RNase reactivation) (% inhibition at 0.1 mM) [1] | inhibition of rLmPDI activity (scrambled RNase reactivation) (% inhibition at 0.5 mM) [1] | inhibition of rLmPDI activity (scrambled RNase reactivation) (% inhibition at 2 mM) [1] | reactivation of scrambled RNase A (RNase A activity at 296 nm) [2]
1 | bacitracin (peptide) | 2 | 50 | 70 | 100 | 
2 | zinc bacitracin (peptide) | 2 | 50 | 70 | 100 | 
3 | recombinant protein LmPDI-(His)6 produced in E. coli (protein) RESTAESLKLTKENFNETIAKSEIFLVKFYVDTCGYCQMLAPEWEKAANETIDNALMGEVDCHSQPELAANFSIRGYPTIILFRNGKEAEHYGGARTKDDIIKYIKANVGPAVTPASNAEEVTRAKEEHDVVCVGLTANNSTSLSTTLAEAAQSFRVSLKFFEAEPKLFPDEKPETIVVYRKGGEKEVYDGPMEVEKLTEFLQISRVAFGGEITPENYQYYSVIKRPVGWAMVKPNETASIELKESLTEVGKKMRSHMVVLWVNISKHPVWRDFGVPEDAKYPAFLAIHWGANYLHSTAEVVTRESLEKFILEFAAGRVEPTIKSLPVPEVETVDGKTTIVAKTMQKHLTSGKDMLILFFAPWCGHCKNFAPTFDKIAKEFDATDLIVAELDATANYVNSSTFTVTAFPTVFFVPNGGKPVVFEGERSFENVYEFVRKHVTTFKVSEKPANVTEEKKSEEENKSSKSNESNDSNESNVDKQDL |  |  |  |  | LmPDI is capable of restoring RNase A activity in a similar manner to that of bovine PDI
4 | bovine protein disulfide-isomerase (protein) APDEEDHVLVLHKGNFDEALAAHKYLLVEFYAPWCGHCKALAPEYAKAAGKLKAEGSEIRLAKVDATEESDLAQQYGVRGYPTIKFFKNGDTASPKEYTAGREADDIVNWLKKRTGPAASTLSDGAAAEALVESSEVAVIGFFKDMESDSAKQFFLAAEVIDDIPFGITSNSDVFSKYQLDKDGVVLFKKFDEGRNNFEGEVTKEKLLDFIKHNQLPLVIEFTEQTAPKIFGGEIKTHILLFLPKSVSDYEGKLSNFKKAAESFKGKILFIFIDSDHTDNQRILEFFGLKKEECPAVRLITLEEEMTKYKPESDELTAEKITEFCHRFLEGKIKPHLMSQELPDDWDKQPVKVLVGKNFEEVAFDEKKNVFVEFYAPWCGHCKQLAPIWDKLGETYKDHENIVIAKMDSTANEVEAVKVHSFPTLKFFPASADRTVIDYNGERTLDGFKKFLESGGQDGAGDDDDLEDLEEAEEPDLEEDDDQKAVKDEL |  |  |  |  | LmPDI is capable of restoring RNase A activity in a similar manner to that of bovine PDI, used as a control
